The results in this text go back to PMC8910226.

This assay deals with F-actin (phalloidin-stabilized) (UniProt P68139). Briefly: co-sedimentation; S1 fixed at 1.5 μM, phalloidin-stabilized F-actin 0-4 μM; rigor conditions (no nucleotide); 100 mM NaCl, 200 mM sodium phosphate pH 7, 5 mM MgCl2, 4 mM DTT; 15 min at 4 °C, 70,000 RPM 60 min 4 °C; SDS-PAGE densitometry of pellet, hyperbolic fit; Kd = F-actin concentration at half Bmax; N = 3.

Turning to “R369H myosin subfragment-1 (S1) motor domain, Drosophila indirect flight muscle myosin (domain or fragment)”, the Kd is 1100 nM.

“control myosin subfragment-1 (S1) motor domain, Drosophila indirect flight muscle myosin (domain or fragment)” yielded a Kd of 1260 nM.
